The target of test [1] is T1, recombinant human CD25 (human, UniProt P01589 22-213, limits assumed).
T1 construct: also called IL-2 receptor subunit a
T1 sequence (looked up): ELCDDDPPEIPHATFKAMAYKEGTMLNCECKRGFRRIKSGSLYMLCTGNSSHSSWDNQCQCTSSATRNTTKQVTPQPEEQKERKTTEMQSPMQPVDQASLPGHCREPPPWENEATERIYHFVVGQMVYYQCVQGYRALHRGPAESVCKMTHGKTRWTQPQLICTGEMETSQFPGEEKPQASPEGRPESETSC
The test can be described thus: SPR; human CD25 immobilized on CM5 chip (legend of FIG. 8b). Background: Surface plasmon resonance follows binding to a sensor surface in real time, without labels.

The target in test [2] is T1, recombinant human CD25. The test can be described thus: SPR (Biacore T200), human CD25 immobilized on CM5 chip, VP101 injected at 3.125-100 nM, 1:1 fit.
Test [3] has as its target T1, recombinant human CD25. The test can be described thus: SPR, Biacore T200; human CD25 immobilized on CM5 chip; 1:1 fit.
In test [4] the target is T2, recombinant cynomolgus CD3de (delta epsilon subunits) (cynomolgus, UniProt Q95LI8 22-105; Q95LI5 22-117). In words: SPR (Biacore T200), cynomolgus CD3de immobilized on CM5 chip, VP104 injected at 3.125-100 nM, 1:1 fit. On the procedure:
(§1) The binding affinities of VP103 (chimeric alpaca anti-CD3 VHH F10-human IgG4) and VP104 (Humanized F10A VHH (C55A)-IgG4) for recombinant human CD3de (delta epsilon subunits) and recombinant cynomolgus CD3de (delta epsilon subunits) were assessed by SPR on a Biacore T200 (GE Healthcare). FIGS. 13a and 13b show the SPR sensorgrams for VP103 to human CD3de and cynomolgus CD3de immobilized onto the surface of CM5 sensor chip. FIGS. 14a and 14b show the SPR sensorgrams for VP104 to human CD3de and cynomolgus CD3de immobilized onto the surface of CM5 sensor chip. The data were fit with a 1:1 fitting model. […] These constructs can also be paired with anti-CD25 VP008, which is based on basiliximab, which is known to cross-react with cynomolgus CD25.

For test [5], the target named is T2, recombinant cynomolgus CD3de (delta …). The test can be described thus: SPR, Biacore T200; cynomolgus CD3de immobilized on CM5 chip; 1:1 fit. The method, then:
as §1

Test [6] addresses T3, recombinant human CD3de (Delta epsilon fusion) (human, UniProt P04234 22-105; P07766 23-126).
T3 construct: It is written here as two chains; also called recombinant human CD3de (delta epsilon subunits)
In words: SPR (Biacore T200), human CD3de immobilized on CM5 chip, VP104 injected at 3.125-100 nM, 1:1 fit. The method, then: as §1

The target of test [7] is T3, recombinant human CD3de (Delta epsilon …). The test can be described thus: SPR, Biacore T200; human CD3de immobilized on CM5 chip; 1:1 fit. On the procedure: as §1
Test [8] shares this target. The test can be described thus: SPR (Biacore T200), human CD3de immobilized on CM5 chip, VP103 injected at 3.125-100 nM, 1:1 fit. The method, then:
as §1

For test [9], the target named is T2, recombinant cynomolgus CD3de (delta …). The test can be described thus: SPR (Biacore T200), cynomolgus CD3de immobilized on CM5 chip, VP103 injected at 3.125-100 nM, 1:1 fit. The method, then: as §1
In test [10] the target is T1, recombinant human CD25. The test can be described thus: SPR, Biacore T200; human CD25 immobilized on CM5 chip.
The target of test [11] is T3, recombinant human CD3de (Delta epsilon …). The test can be described thus: SPR, Biacore T200; human CD3de immobilized on CM5 chip.
Test [12] deals with T1, recombinant human CD25. The test can be described thus: SPR (Biacore T200), human CD25 immobilized on CM5 chip, VP100 injected at 3.125-100 nM, 1:1 fit.
Test [13] addresses T1, recombinant human CD25. In words: SPR; human CD25 immobilized on CM5 chip (legend of FIG. 8a).

T3 sequence (P04234 22-105, stated change not applied, chain 1 of 2): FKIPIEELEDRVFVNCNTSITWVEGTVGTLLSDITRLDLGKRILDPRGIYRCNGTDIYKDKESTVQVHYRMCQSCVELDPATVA
T3 sequence (P07766 23-126, stated change not applied, chain 2 of 2): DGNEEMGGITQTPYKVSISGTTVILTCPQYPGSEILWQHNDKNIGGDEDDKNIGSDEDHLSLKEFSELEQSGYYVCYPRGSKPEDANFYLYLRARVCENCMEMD
T2 sequence (Q95LI8 22-105, stated change not applied, chain 1 of 2): as the sequence (P04234 22-105, stated change not applied, chain 1 of 2) above, with I5V, N15K, I20V, S32T, D33N, I34N, T64A, S74N, V83L counted along it
T2 sequence (Q95LI5 22-117, stated change not applied, chain 2 of 2): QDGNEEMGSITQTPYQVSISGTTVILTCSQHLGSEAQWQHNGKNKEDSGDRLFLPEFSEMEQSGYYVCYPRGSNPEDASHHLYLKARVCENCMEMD

B1: VP101 (hu7G7-IgG4) (antibody, V domains shown)
VH: EVQLVESGGGLVQPGGSLRLSCAASGFTFSSYGMSWVRQAPGKRLELVATINGYGDTTYYPDSVKGRFTISRDNAKNTLYLQMNSLRAEDTAVYYCARDRDYGNSYYYALDYWGQGTLVTVSS
VL: EIVLTQSPATLSLSPGERATLSCRASSSVSFMHWLQQKPGQAPKPLIYATSNLASGIPARFSGSGSGTDYTLTISSLEPEDFAVYYCQQWSSNPPAFGGGTKVEIKR
notes: Humanized 7G7 on human IgG4
In general, Kd refers to the free concentration of one partner at which half of the binding sites on the other are occupied at equilibrium, for simple one-to-one binding. In general, koff refers to the first-order rate constant of dissociation. The kon is a measure of how fast the partners come together. For B1, the Kd in test [1] is less than 1 nM. In test [2], the Kd was 0.001 nM, the koff was 1.64e-07 s⁻¹ and the kon turned out to be 126000 M⁻¹ s⁻¹. For the same molecule, the Kd in test [3] is less than 0.001 nM.

B2: VP104 (Humanized F10A VHH (C55A)-IgG4) (Fc fusion)
chain: EVQLLESGGGLVQPGGSLRLSCAASGFTLDDYAIGWVRQAPGKGREGVSAIRRSDGHTYYADSVKGRFTISSDNSKNTVYLQMNSLRAEDTAVYYCAAGTGWGRYFYAGMDYWGQGTLVTVSSGGGGSGGGGSGGGGSKYGPPCPPCPAPEAAGGPSVFLFPPKPKDTLMISRTPEVTCVVVDVSQEDPEVQFNWYVDGVEVHNAKTKPREEQFNSTYRVVSVLTVLHQDWLNGKEYKCAVSNKGLPSSIEKTISKAKGQPREPQVYTLPPSQEEMTKNQVSLTCLVKGFYPSDIAVEWESNGQPENNYKTTPPVLDSDGSFFLYSRLTVDKSRWQEGNVFSCSVMHEALHNHYTQKSLSLSLGK
notes: also called humanized Anti-CD3 nanobody F10 with free Cys removed and with V-IGG4-A-Fc
B2: the koff came out at 0.0516 s⁻¹ in [4] and 0.0651 s⁻¹ in test [6]. The kon came to 3.89e+06 M⁻¹ s⁻¹ in test [4] and 4.58e+06 M⁻¹ s⁻¹ in test [6]. Moreover, the Kd in [5] was 13.3 nM; in [7] it was 14.2 nM.

B3: VP103 (chimeric alpaca anti-CD3 VHH F10-human IgG4) (Fc fusion)
chain: QVQLQESGGGLVQAGGSLTLSCAASGFTLDDYAIGWFRQAPGKEREGVSCIRRSDGHTYSADSVKGRFTISSDNAKNTVYLQMNNLKPEDTAVYYCAAGTGWGRYFYAGMDYWGKGTQVTVSSGGGGSGGGGSGGGGSKYGPPCPPCPAPEAAGGPSVFLFPPKPKDTLMISRTPEVTCVVVDVSQEDPEVQFNWYVDGVEVHNAKTKPREEQFNSTYRVVSVLTVLHQDWLNGKEYKCAVSNKGLPSSIEKTISKAKGQPREPQVYTLPPSQEEMTKNQVSLTCLVKGFYPSDIAVEWESNGQPENNYKTTPPVLDSDGSFFLYSRLTVDKSRWQEGNVFSCSVMHEALHNHYTQKSLSLSLGK
notes: VHH-linker-IgG4 Fc chain; also called Alpaca Anti-CD3 nanobody F10 with V-IGG4-A-Fc
In the case of B3, the values for the koff in test [8] and in test [9] were 0.000972 s⁻¹ and 0.00112 s⁻¹, respectively. The kon in test [8] came to 261000 M⁻¹ s⁻¹; in test [9] it was 406000 M⁻¹ s⁻¹. Moreover, the results for the Kd in test [5] and in [7] were 2.8 nM and 3.7 nM, respectively.

B4: VP008 (VCD25-L2H2 with V-IGG4-B) (antibody, human IgG4 S228P, kappa, F234A L235A, V domains shown)
VH: QVQLVQSGAEVKKPGASVKVSCKASGYSFTRYWMHWVRQPPGQRLEWMGAIYPGNSDTSYSQKFEGRVTITADTSASTAYMELSSLRSEDTAVYYCSRDYGYYFDFWGQGTTVTVSS
VL: EIVLTQSPDFQSVTPKEKVTITCRASSSRSYMQWYQQKPDQSPKRLIYDTSKSASGVPSRFSGSGSGTDYTLTINSLEAEDAATYYCHQRSSYTFGQGTKLEIKR
notes: 4 chain IgG format (huVIT-101), IgG4; also called huBasiliximab H2L2; huVIT-101
Turning to B4, the Kd in test [10] worked out at 1.2 nM.

B5: VP002 (huOKT3 VCD3-L3H3 with V-IGG4-A) (antibody, human IgG4 S228P, kappa, F234A L235A, V domains shown)
VH: QVQLVQSGAEVKKPGASVKVSCKASGYTFTRYTMHWVRQSPGQGLEWMGYINPSRGYTNYNQKFQGRVTMTTDKSTSTAYMELSSLRSEDTAVYYCARYYDDHYSLDYWGQGTTVTVSS
VL: EIQLTQSPATLSLSPGERATLSCRASSSVSYMNWYQQKPGQAPRRWIYDTSKLATGIPARFSGSGSGTDYTLTISSLEPEDAAVYYCQQWSSNPFTFGQGTKLEIKR
notes: 4 chain IgG format (huVIT-100), IgG4; also called huOKT3 H3L3; huVIT-100
For the molecule B5, the dissociation constant (Kd) in test [11] was determined as 12.4 nM.

B6: VP100 (ch7G7-IgG4) (antibody, V domains shown)
VH: EVQLVESGGDLVQPRGSLKLSCAASGFTFSSYGMSWVRQTPDKRLELVATINGYGDTTYYPDSVKGRFTISRDNAKNTLYLQMSSLKSEDTAMYFCARDRDYGNSYYYALDYWGQGTSVTVSS
VL: QIVLSQSPAILSASPGERVTMTCRASSSVSFMHWLQQKPGSSPKPWIYATSNLASGVSARFSGSGSGTSYSLTITRVEAEDAATYYCQQWSSNPPAFGGGTKLEIKR
notes: Chimeric 7G7 on human IgG4
On to B6, for which, in test [12], the Kd was determined as 0.009 nM, the koff came to 3.56e-06 s⁻¹ and the kon is 392000 M⁻¹ s⁻¹. Besides, in test [13], the Kd came out at 3.8 nM.

B7: VP001 (Teplizumab H:C114S with V-IGG4-A) (antibody, human IgG4 S228P, kappa, F234A L235A, V domains shown)
VH: QVQLVQSGGGVVQPGRSLRLSCKASGYTFTRYTMHWVRQAPGKGLEWIGYINPSRGYTNYNQKVKDRFTISRDNSKNTAFLQMDSLRPEDTGVYFCARYYDDHYSLDYWGQGTPVTVSS
VL: DIQMTQSPSSLSASVGDRVTITCSASSSVSYMNWYQQTPGKAPKRWIYDTSKLASGVPSRFSGSGSGTDYTFTISSLQPEDIATYYCQQWSSNPFTFGQGTKLQITR
notes: 4 chain IgG format (chVIT-100), IgG4 Fc with S228P, F234A, L235A, K322A; also called chVIT-100
As for B7, the Kd in test [11] came out at 5.2 nM.

The record behind these values is US20240383980A1 (VITRUVIAE, published 2024).
